Source: publication PMC4826287 (Journal of molecular biology, 2015)
Values belong to the molecule of their own block, whether it stands above or below them.

B1: SPOP^MATH (MATH domain of Speckle-type POZ protein, residues 28-166) (domain or fragment, UniProt O43791 28-166, looked up)
chain: KVVKFSYMWTINNFSFCREEMGEVIKSSTFSSGANDKLKWCLRVNPKGLDEESKDYLSLYLLLVSCPKSEVRAKFKFSILNAKGEETKAMESQRAYRFVQGKDWGFKKFIRRDFLLDEANGLLPDDKLTLFCEVSVVQD

Tests used:
[1] = biological target: T1, Gli3^1-90 (90-residue N-terminal Gli3 fragment), His tag cleaved (UniProt P10071 1-90); assay: AUC
T1 sequence (looked up): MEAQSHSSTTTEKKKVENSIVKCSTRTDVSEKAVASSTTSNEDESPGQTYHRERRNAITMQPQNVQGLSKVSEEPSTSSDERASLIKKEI

[2] = biological target: B1; assay: fluorescence polarisation
[3] = biological target: SPOP^MATH-BTB-BACK (SPOP construct encompassing residues 28-359) (UniProt O43791 28-359); assay: BLI
[4] = biological target: T2, SPOP^MATH-BTB (SPOP construct encompassing residues 28-337) (UniProt O43791 28-337); assay: BLI
[5] = biological target: B1; assay: BLI
SPOP^MATH = SPOP^MATH (Homo sapiens, UniProt O43791); assay: Sedimentation velocity AUC, stoichiometry of Gli3^1-90/SPOP^MATH complex; format: binding; details: SV AUC, excess SPOP^MATH (Gli3^1-90 156 μM / SPOP^MATH 525 μM), pH 6.0, 20 °C, size-and-shape distribution analysis
[6] = biological target: T2, SPOP^MATH-BTB (SPOP construct …); assay: fluorescence polarisation
[7] = biological target: B1; assay: fluorescence polarisation; remark: listed apart in the source

Molecule: B1
stoichiometry N [1]: ≤ 3 SPOP^MATH per Gli3^1-90

B3: His6-Gli3^1-90 (N-terminal His6 tag left on) (domain or fragment, UniProt P10071 1-90, looked up)
chain: MEAQSHSSTTTEKKKVENSIVKCSTRTDVSEKAVASSTTSNEDESPGQTYHRERRNAITMQPQNVQGLSKVSEEPSTSSDERASLIKKEI
Kd [3]: 1.5 µM
Kd [4]: 28 µM
Kd [5]: 21 µM

B5: SBM1 (Gli3 peptide, SPOP-binding motif 1) (peptide)
peptide: Ac-MEAQSHSSTTTEKK-NH2
Kd [2]: ~4100 µM

B6: F-pPuc (N-terminally fluorescently labeled Puc peptide) (peptide)
peptide: ENLACDEVTSTTSSST
modifications: not fully specified; fluorescein on the N-terminus; C-terminal amide
Kd [6]: ~6 µM
Kd [7]: ~6 µM

Further lines, results first:

Kd [2]: 7.7 µM
B2: pPuc (peptide derived from the Drosophila melanogaster protein Puckered, residues 91-106) (peptide)
peptide: Ac-ENLACDEVTSTTSSST-NH2

number of MATH domain molecules bound to 1 Gli3^1-90 molecule (SPOP^MATH): up to 3
B4: Gli3^1-90: 90-residue N-terminal Gli3 fragment, recombinant, intrinsically disordered (protein)
chain: MEAQSHSSTTTEKKKVENSIVKCSTRTDVSEKAVASSTTSNEDESPGQTYHRERRNAITMQPQNVQGLSKVSEEPSTSSDERASLIKKEI
modifications: left off: His6, N-terminal, cleaved

Kd [2]: 560 µM
B7: SBM3 (Gli3 peptide, SPOP-binding motif 3) (peptide)
peptide: Ac-KVSEEPSTSSDERA-NH2

Kd [2]: 80 µM
B8: SBM2 (Gli3 peptide, SPOP-binding motif 2) (peptide)
peptide: Ac-EKAVASSTTSNEDES-NH2
